Series [1] is described as follows: Laccase-cellulase catalyzed hydrolysis of pretreated biomass, glucose release. Format: biochemical. The conditions noted are these: with cellulase 1 or 2, pH 5.1, 50° C., 30 hour. The method, then:
FIG. 13. A graphical comparison of glucose released over time during hydrolysis of STEX-SCB at pH 5.1 and 50° C. by each of commercial enzyme preparations Cellulase 1 (CC2) [A]; or Cellulase 2 [B], either alone, or in combination with a laccase enzyme; the tested laccases being respectively LacGL1 and GLlac1 (LacJooSS; Q9HG17) derived from G. lucidum; and laccases derived from Agaricus bisporus (Sigma 40452), Pleurotus ostreatus (Sigma 75117) and, Trametes versicolor (Sigma 51639).
(§1) The commercial fungal laccases were purchased as lyophilized protein samples from Sigma Aldrich. A solution of each of the above 5 laccases was prepared in a citric buffer containing 20% of glycerol (pH 5.1, 100 mM).
(§2) Two different commercially available cellulase enzyme preparations used in the comparative study were “Cellulase 1” and “Cellulase 2”, which were tested in combination with each of the laccases listed above.
(§3) The three different types of pretreated biomass used in the comparative study were sugarcane bagasse, barley straw and wheat straw. The source and pre-treatment of the sugarcane bagasse by steam explosion was as set out in Example 9. […] The composition of the dry and the pretreated biomass were determined according to the US National Renewable Energy Laboratory (NREL) procedures (Sluiter et al, 2010).
(§4) The laccase-cellulase catalyzed hydrolysis of the pretreated biomass samples to release glucose was performed as follows: Hydrolysis of 5% (w/v) samples of pretreated sugarcane bagasse, barley straw, and wheat straw biomass were assayed using an Enzyme/Substrate (E/S) ratio of 0.064% w/w for laccases and of 0.4% w/w for each commercial cellulase preparation in each hydrolysis reaction. The E/S dosage was based on the total protein concentration used, as determined using Pierce BCA (BiCinchoninic Acid) protein assay kit microplate procedure according to manufacturer's instruction (Thermo Fisher Scientific, Rockford, US). […]
(§5) Laccase and cellulase-mediated hydrolysis of the 3 biomass forms, measured as glucose release, are shown graphically in FIGS. 13, 14 and 15. […]

Experiment in series [2]: as above
The series is classed as biochemical. To be noted: with cellulase 1 or 2, pH 5.1, 50° C., 30 hour, p<0.05. The method, then: FIG. 14. A graphical comparison of glucose released over time during hydrolysis of pre-treated barley straw at pH 5.1 and 50° C. by each of commercial enzyme preparations Cellulase 1 (CC2) [A]; or Cellulase 2 [B], either alone, or in combination with a laccase enzyme; the tested laccases being respectively LacGL1 and GLlac1 (LacJooSS; Q9HG17) derived from G. lucidum; and laccases derived from Agaricus bisporus (Sigma 40452), Pleurotus ostreatus (Sigma 75117) and, Trametes versicolor (Sigma 51639).
as §1, §2, §3, §4, §5

A short description of series [3]: Temperature stability of LacGL1 laccase at pH 4.7. The series is classed as physicochemical. To be noted: for activity retained: pH 4.7. The protocol:
FIG. 9. The temperature stability profile of LacGL1 laccase as a function of LN [U/mL] vs. incubation time at pH 4.7 and 0.1 M citrate-phosphate buffer. […] The relative difference between single measurements was <5%.
FIG. 10. LacGL1 laccase stability evolution plot at optimum pH of 4.7 and two different temperature values (40° C. and 50° C.). Since the plot is a continuation of temperature stability plot (FIG. 9), the first measurement is given after 1 h. Laccase residual activity [%] is calculated based on activity value of laccase measured at pH 4.7 and 25° C. The relative difference between single measurements was <5%.
The predicted optimal conditions for the LacGL1 laccase activity were validated by measuring the effect of temperature on the relative activity of LacGL1 laccase at pH 4.7. […] (FIG. 10).

A short description of series [4]: Michaelis constant (Km) of laccase for ABTS, Hanes-Wolf plot. The series is classed as biochemical. To be noted: substrate ABTS.

B1: LacGL1: Fungal laccase from Ganoderma lucidum CBS229.93 (SEQ ID NO: 5/9), recombinantly expressed in Pichia pastoris X-33 (protein, listed as Ganoderma lucidum)
chain: GIGPKTDLTISNADVAPDGYTRAAVVVNGVFPAPLITGNKGDRFQLNVIDQMTNHTMLKSTSIHWHGFFQKGTNWADGPAFINQCPISSGHSFLYDFQVPDQAGTFWYHSHLSTQYCDGLRGPFVVYDPKDPLKKLYDIDDDSTVITLTDWYHVAARLGPRFPLGSDSTLINGLGRSTTNVTADLAVINVTQGKRYRFRLVSLSCDPNYTFSIDDHNMTVIEADGIETQPVTVNAIQIFSAQRYSFVLTANQTIDNYWIRANPNFGNVGFTDGINSAILRYAGADPVEPTTSQQTTQNLLNEVDLHPFVPKRTPGQPTQGGVDTAINMVFNFNGSNFFINNASFVPPTVPVLLQILSGAQAAQDLLPSGSVYTLPVNKSIELTFPATANAPGAPHPFHLHGHAFAVVRSAGSTVYNYDNPVWRDVVSTGTPAAGDNVTIRFQTDNPGPWFLHCHIDFHLEAGFAVVFAEDPTDTSLANPVPKAWSDLCPTYDALSVDDQ
modifications: mat_peptide (1)..(499) Mature LacGL1 laccase (minus signal peptide)
Regarding B1, the results for the “glucose release compared to GLlac1” value in series [1] and in series [2] were “the same” and “significantly greater”, respectively. For the same molecule, the “glucose release compared to the other tested laccases” value in series [1] (p<0.05) and in series [2] was “significantly enhanced” each time. Moreover, the change of activity result in series [3] (25, 40 and 50° C., pH 4.7, within an hour) is “did not change significantly”. Also, the laccase activity remaining in series [3] (60° C., pH 4.7, within an hour) amounted to 19%; in series [3] (70° C., pH 4.7, within an hour), 3%. In addition, the activity retained was 23% in series [3] (after 5 h at 50° C.) and 33% in series [3] (after 24 h at 40° C.). Moreover, the results for the Km in series [4] (laccase expressed in Ganoderma lucidum CBS229.93 (native)) and in series [4] (recombinantly expressed in Pichia pastoris) were 107 µM and 122 µM, respectively.

The values above are taken from patent US9725702B2, “Laccase from ganoderma lucidum capable of enhancing enzymatic degradation of lignocellulolytic biomass” (DANMARKS TEKNISKE UNIVERSITET, priority 2012, dated 2017).
